Measured values: the DeepSol protein solubility set

Assay: soluble on expression in E. coli; label from the status in PepcDB or PDB records

Sequence | soluble on expression in E. coli
MGSDKIHHHHHHAQTPVEKGLKSINRQAAEAYIGFLADDELQGREAGFHGSRVAARYIASLLKEMGIRPLGESYYQPFDAYRKERQQKGRLEVHPDSIAKLKQVVHQKLSMNNVLGMIPGKKTNEYVIVGAHFDHLGIDPALDGDQIYNGADDNASGVSAVLQIAKAFVVSGQQPERNVIFAFWDGEEKGLLGSKYFVQECPFINQVKGYLNFDMIGRNNQPQNPKHVVYFYTEANPAFGRWLKEDIKKYGLQLEPNYRPWDKPVGGSDNGSFAKAGIPIIWYHTDGHPDYHQPSDHADRLNWDKVVEISKASFLNVWNLANEKDY | not soluble
MGSDKIHHHHHHATCCAANGEGNCPEGTCRKECTNACNTNNQKNKTMAYSKKYTNADFYKDGKFQQDVAMEAMKDMFAFYDVPFTELMAKDMWVTDFGLGDFENVGMGGIFWINDPEYKYFAHAIYLLPGQMIPEHAHVKTDFPAKHESWMVEKGWVYNFSEVGDETPNAPAIPAGHGPIKSKNFVVQKVGDVLRLKKLETFHFMMAGPEGAIVDEWACYHDNAGLRFTNQKAAL | not soluble
MGSDKIHHHHHHATSFTDSLDLTQYRNDVKTLASDAFGGRAPLSEGEQLTLDYLEKAFKEMGLKPAFGDSYLQAVPLAKISADQNMQLDIGGLKLANGSEFTARTQRIAEKVSLKNSDVVFVGYGINAPEYGWNDYQGLDVKGKTVIVLVNDPGFATQDPNVFKGNAMTYYGRWTYKYEEAARQGAEAVFIVHETAPAAYGWGVVQNSNTGTKFALVDTNNNQGQVGVMGWVQYEVAQNIFAKAGMNFDNLKQQAAKPNFKALPLKLRATLTLNNTIERAESHNVAALLPGKTRPDEVVMMHAHWDHLGTIIENGKPEILNGAVDNASGVAGVLALARYFKQQAEIAPLERSIIFSAFTAEETGLIGAQHFAQHPSVPTKDIVAFLNIDGMNVGQSVDYILRYGDGVSELEQYLDKAAKAQGRLVKADPRPQNGLMFRSDHFALAQQGVPGLLFMSLGDTDPDYIAHKYHQGADDYDPNWSLAGVSQDLELMAQMLTMLANSRDWPRWIESSDFKAKREQDGRN | not soluble
MGSDKIHHHHHHATVTDSASTDIGIGFSGHGPGTTPGPLDIQWAPIGLDFSNSNMVNTTAVQAFPETTGTNKYVVVSEKRSNEPTREWSLTAQLSDLTNAGGSETLTGAGLKFDAAVKGYTGTNTPESPGSIVDKGARTATVNASSQSVTAGAAAVPVMKDAGTGGASFLGSTAMEMSNVKLEVPANAAKINQQYSGTLTWSLNDTI | not soluble
MGSDKIHHHHHHAWGAKDAEVGKAWKGWKKGQFQIHLIYTGVSESMFLIFPDGTTMLLDCGDHNAVGRGKLAVPVLPNPDRHAGEWISRYVRRVNPQKDYVDYMMLTHYHSDHGGNNKFYARKETRDGKDYYLSGFSQAAEYLTFGKAFDRCWPDYNDPLPLTQEAADAFEHMKDFYDYMLAHKKMEIEKFCLGETNQIAMKKDATAYPGFSVRNICANGRIADKEGNIRDLYAERKKSNPVKFSENGMSLGMIFTYGDFKFYTAGDFSDGWELPNGKRFEIEDAIADVVEPVSVAKINHHGHKSMTDKLVAALRPRVVVNNVWDQLHTLPSVMERFYNRNLYPGERIVCPTVFPAERRAEDAGQPWLDILNPSSFDAGHVIVNVEEGGKDYSVTYLTANDESMTVKSVMRFKS | not soluble
MGSDKIHHHHHHDAGAPAFLSAGRVADGAYNLYGLDRRGRPLFHLPIPDRGHAAAAHPQRAEAVAFARRPGRFALVLNCVSGAEIARLSAPEGRHFYGHGAFDAEGRVLFTTENDYEAGQGRIGLWDAGAGYRRIGEVASGGVGPHDIRLMPDGQTLVVANGGVETHPDTGRVKLNLPVMQPNLSYLSLAGEVLEVVRMPPEHRMNSIRHLDLRADGLVAFAMQWQGEGTELRPVLGLHRRGTAPVAVTGNEAEMRAMNGYGGSVIFYDQGRRVAVSSPRGGIVQLSDVAAGRIIGGVAITDVCGLGVTGGGLVASSGSGVFTRVGGKEASRSEIAWDNHLVAVNRA | not soluble
MGSDKIHHHHHHDDHQGIIPLPPVENAFQEKYPDAKNPVFEIEGNYYVVDFNNGGSETTAWFTDQGIWMMEKIDISFAQLPAAVSTAFKQSFYSNWTVDDTYAINRLNMGIVYKIEAEQSNSEVDLYYSQYGNLIKAVDDEINNDAPIVIPKEVSNLMEITFANAELLDIQQNSLGYELDMIDNQIYKVAQLNKDYRWQSTTWAMSEQEVPQIVMQGFESSAYASDKVQSIYTLLNANGTFYLFKVSHNGQDKTITFDVFGNIV | not soluble
